# B1: Vang-like protein 2 (Homo sapiens), Q9ULK5 (parent)
# chain: MDTESQYSGYSYKSGHSRSSRKHRDRRDRHRSKSRDGGRGDKSVTIQAPGEPLLDNESTRGDERDDNWGETTTVVTGTSEHSISHDDLTRIAKDMEDSVPLDCSRHLGVAAGATLALLSFLTPLAFLLLPPLLWREELEPCGTACEGLFISVAFKLLILLLGSWALFFRRPKASLPRVFVLRALLMVLVFLLVVSYWLFYGVRILDARERSYQGVVQFAVSLVDALLFVHYLAVVLLELRQLQPQFTLKVVRSTDGASRFYNVGHLSIQRVAVWILEKYYHDFPVYNPALLNLPKSVLAKKVSGFKVYSLGEENSTNNSTGQSRAVIAAAARRRDNSHNEYYYEEAEHERRVRKRRARLVVAVEEAFTHIKRLQEEEQKNPREVMDPREAAQAIFASMARAMQKYLRTTKQQPYHTMESILQHLEFCITHDMTPKAFLERYLAAGPTIQYHKERWLAKQWTLVSEEPVTNGLKDGIVFLLKRQDFSLVVSTKKVPFFKLSEEFVDPKSHKFVMRLQSETSV
# partner: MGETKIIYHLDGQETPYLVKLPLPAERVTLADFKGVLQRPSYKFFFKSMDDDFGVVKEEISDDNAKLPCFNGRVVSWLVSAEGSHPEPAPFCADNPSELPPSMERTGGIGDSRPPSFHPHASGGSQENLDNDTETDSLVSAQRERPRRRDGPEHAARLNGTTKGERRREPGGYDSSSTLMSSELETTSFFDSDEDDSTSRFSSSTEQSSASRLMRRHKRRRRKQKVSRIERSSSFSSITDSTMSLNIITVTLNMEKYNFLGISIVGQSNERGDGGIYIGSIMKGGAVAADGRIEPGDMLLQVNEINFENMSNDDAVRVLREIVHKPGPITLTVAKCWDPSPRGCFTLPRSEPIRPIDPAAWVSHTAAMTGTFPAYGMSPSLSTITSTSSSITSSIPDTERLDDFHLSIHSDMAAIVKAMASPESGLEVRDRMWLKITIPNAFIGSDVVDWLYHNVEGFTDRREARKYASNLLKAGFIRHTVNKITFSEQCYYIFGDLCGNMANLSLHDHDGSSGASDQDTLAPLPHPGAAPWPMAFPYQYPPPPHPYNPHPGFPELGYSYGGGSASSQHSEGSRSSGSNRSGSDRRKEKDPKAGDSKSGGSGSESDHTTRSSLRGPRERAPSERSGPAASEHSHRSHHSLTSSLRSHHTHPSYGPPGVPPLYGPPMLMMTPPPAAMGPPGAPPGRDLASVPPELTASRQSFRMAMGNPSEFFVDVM
# B2: Vang-like protein 2 (Homo sapiens), Q9ULK5 (parent)
# chain: B1 chain
# partner: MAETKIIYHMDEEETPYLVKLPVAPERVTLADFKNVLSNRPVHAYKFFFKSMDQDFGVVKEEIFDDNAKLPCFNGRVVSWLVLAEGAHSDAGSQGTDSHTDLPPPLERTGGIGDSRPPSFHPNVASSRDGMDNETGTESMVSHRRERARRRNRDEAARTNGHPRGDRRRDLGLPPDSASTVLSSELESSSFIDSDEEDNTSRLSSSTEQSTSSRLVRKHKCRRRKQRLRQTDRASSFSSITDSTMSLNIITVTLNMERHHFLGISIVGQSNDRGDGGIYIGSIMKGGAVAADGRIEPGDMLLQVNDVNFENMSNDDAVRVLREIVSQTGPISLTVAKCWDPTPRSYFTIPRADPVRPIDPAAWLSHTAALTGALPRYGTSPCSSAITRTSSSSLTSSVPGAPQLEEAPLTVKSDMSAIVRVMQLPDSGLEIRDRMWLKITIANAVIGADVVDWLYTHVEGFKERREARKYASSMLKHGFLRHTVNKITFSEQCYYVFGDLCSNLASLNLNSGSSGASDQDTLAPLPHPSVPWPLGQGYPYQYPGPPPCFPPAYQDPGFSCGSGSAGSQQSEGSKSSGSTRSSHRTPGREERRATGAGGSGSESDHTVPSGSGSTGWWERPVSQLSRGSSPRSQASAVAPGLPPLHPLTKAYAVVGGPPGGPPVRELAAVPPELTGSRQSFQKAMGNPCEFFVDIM
# B3: Vang-like protein 2 (Homo sapiens), Q9ULK5 (parent)
# chain: B1 chain
# partner: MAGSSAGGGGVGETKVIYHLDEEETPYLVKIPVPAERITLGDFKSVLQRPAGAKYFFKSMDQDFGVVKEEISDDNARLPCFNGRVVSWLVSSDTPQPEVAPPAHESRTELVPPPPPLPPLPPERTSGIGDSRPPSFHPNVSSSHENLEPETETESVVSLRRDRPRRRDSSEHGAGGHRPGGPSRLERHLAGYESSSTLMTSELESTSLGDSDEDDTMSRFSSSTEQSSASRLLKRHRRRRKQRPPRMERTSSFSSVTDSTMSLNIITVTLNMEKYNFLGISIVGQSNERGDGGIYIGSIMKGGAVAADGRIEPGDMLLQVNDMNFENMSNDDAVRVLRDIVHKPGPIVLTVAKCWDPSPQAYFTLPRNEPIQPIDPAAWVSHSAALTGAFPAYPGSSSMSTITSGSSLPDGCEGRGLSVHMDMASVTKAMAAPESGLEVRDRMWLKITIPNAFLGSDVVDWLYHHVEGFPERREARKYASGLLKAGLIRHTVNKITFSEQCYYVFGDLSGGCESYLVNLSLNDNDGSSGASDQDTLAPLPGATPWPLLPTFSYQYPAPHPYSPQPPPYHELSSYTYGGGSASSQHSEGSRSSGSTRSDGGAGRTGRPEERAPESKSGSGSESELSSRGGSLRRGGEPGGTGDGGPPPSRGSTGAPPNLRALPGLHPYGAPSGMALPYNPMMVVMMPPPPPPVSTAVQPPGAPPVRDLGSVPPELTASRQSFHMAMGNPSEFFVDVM
# Variants of: B1
# Conditions: with dvl3_mouse Dvl3, Q61062
row,Variant,effect of a mutation on the interaction
1,S464N,disrupting interaction
2,F437S,disrupting interaction
3,D255E,disrupting interaction
4,R353C,decreasing interaction

# Variants of: B2
# Conditions: with dvl1_mouse Dvl1, P51141
row,Variant,effect of a mutation on the interaction
1,R353C,decreasing interaction
2,D255E,disrupting interaction
3,S464N,disrupting interaction
4,F437S,disrupting interaction

# Variants of: B3
# Conditions: with dvl2_mouse Dvl2, Q60838
row,Variant,effect of a mutation on the interaction
1,S464N,disrupting interaction
2,F437S,disrupting interaction
3,D255E,disrupting interaction
4,R353C,decreasing interaction

# From IntAct's records for PubMed 20558380
